Experimental data as given in the DeepSol protein solubility set.

Assay: soluble on expression in E. coli; label from the status in PepcDB or PDB records

Soluble on expression in E. coli, not soluble:
MGSDKIHHHHHHMDVRRPIREAVNNRRKPKFLSVSFNQDDSCFSVALENGFRIFNTDPLTSKLSKTFKESATNQSRGTGIGYTRMLYRTNYIALVGGGKRPRHALNKLIIWDDLLQKETITLKFMSSIKDVFLSRIHIVVVLENTIEIFQFQTNPQRICPILDIPPNGSVDYVVCSSKHLQSQASQSQSKILEIIAFPSNKCVGQIQVADLSQIKYNSQNPKESALLPTSIIKAHKNPIKLVRLNRQGTMVATCSVQGTLIRIFSTHNGTLIKEFRRGVDKADIYEMSFSPNGSKLAVLSNKQTLHIFQIFETTNTETNTPDHSRANGSSHPLKNYIPKGLWRPKYLDSVWSICNAHLKNPIFDAHRNDNSGDVTHDNEFYKDRCRIGWCQDSNNREQDDSLVLVWQNSGIWEKFVILEKEQQDSSKTHYSLNESLRNEDTKSAGEPTRWELVRESWREL
MGSDKIHHHHHHMDYELLKTFICLAKLKNFTKTAEQLHVVQSTITSRIKHLEHTIGETLFIRTNKKVLLTGAGEIFLPYAKQLLSIQETAISRLHTLELFKDTLNIGAVHSIYDCHVQNMILKYMQRNKKIAIKITIEHSEELIQMLHDNQLDVTFTYLDIKSSQFICNPFYTDKIILVTGSQNNYNERGITNDELRSLPLLSSAILTEEFQEWFYSIFPRNYIYPLDININSNIVTFLKDGIGFSFMPESAAKNFIEEGSLIEVKLLESTPPSMKSYVLLNKQRINSEAVHSWLNEFPTLTST
MGSDKIHHHHHHMDYPDKMTPAQRAAAKAKGEPADRVACNPNIANGMARIAGYKISQFNDDPEALADAIIKTYRRFGADGARIFTDLFLVSEAMGAKVRKPEDNTADLEEPAINDMSEFDKLKVIDPYTQGRIPVHLRAIEIVRDEIASEVGVTASVVGPFTNAFFLIGVEKMTKMLLKDPESVHKLCEISLQSCIALTDAVLEKGVGVTISEPLSSCTVVSPKHFREFSAPYLKRLIDHIKARTGKLVIHICGITDPIWDDLVEMGVDVLSIDNVADMEKCAETVGDKMVIAGNVDPSAIMYAGSREDVRKATIKCAKQGLKAKKGFMIMSGCSLPVEVPIENIDAMMDTAREMGWPVTEEKLDYLLSFDKYKD
MGSDKIHHHHHHMEAKWLEDFLSLADTKSFSRAARHRHLTQSAFSRRIAALETWMDAKLVDRSINPITLTPAGQMFRGLAADILRSMYAARNLVNGYDQFAASDQVVRFAVAHTLVFTLFPEWLKQLNGEVGHVTARVNAVNVPEGVQQLVEGECDLLLGYHHPQLPIVLDPNHFPFVTLGVERILPVSTPDAHGRPVFELPGAPDAPLPLLAYSSGAFLGNVVEMLLLNASESYALHRCFETHMSEALKGMVVAGHGIGWLPESCVAKELAEGSLVRAGSADWITELEIRLYRSARKRGLAAEQLWTYIMNRPRTAADGLVAAEPGAPAVRIARRSVGGSR
MGSDKIHHHHHHMEFQLDKDWRLQPIKGATGQTYMGIKETEKVFIKRNTSPLLAALSKEGLAPKMIWTKRTANGDVLTAQEWLEGRLLHADEIGKRNDVIDVLYQLHHSNLLKDMLKKIGGEVCTPLTMLKEYKRQLPKELKRNSYLKEVITYLYNHLPEYPETSYVAVHGDVNHRNWLVSNNYLYLVDWDSVMVADPAVDLGMILSHYVPRSGWNQWLLSYGLIPNESTVQRIYWYGLFSFLQEIVRHHQEGERRAMTAEILQLKRMFSI
MGSDKIHHHHHHMEIGLIDIKGTLPCFENFGNLPTKIIHENNISKIKDLEMLIIPGGSIVESGSFTDEFKKQILDFDNYIVGICSGFQILSEKIDIGRKSPIPIIKEGLGLLNVEFSPLICTDLVKFNIENDNLFGKKNQLGHGFHCHTYGNIEITNNSTKIWTTSEIEKLNYKMVGKQNILSGVFKNKVYGTMVHNLLDNDFVVENFLKNMKIKDDEKQEIFKKNSILKEKLKDRSKISENFKKIESNDKKGIILLATGSESGKTFLSTSICSKLKGKTFVSKIGPDVRDIVPSLYLLREPMTKFSSIKLSDRGWSEPSEFLEFVKNSKFNNYIIEGVMGAFTGALNKKNYSGSEVSKILGFPVYIISSCSKTGIEGSFVECMAYHSLLKEMGVNVAGIVLNRVYNAELLEKVKKIANDLNIDLIGVNKLNVNVDNKRGLIPEVEIDYEEFCNATMKLDFEIDIPKINPEKINEDSKTFEEYLKIWSEKLININ
MGSDKIHHHHHHMEIKQLKEGLEGKVDFSLEYLREKPRQRAHMVASLLDDFFQPLSQHVLLEERISIMIRRGYVSRNLQDGSLNQHLQNGYERVMSGSLQSYKFRNVLTTATCLSLIGCSGSGKSSTLDRILATYPQVIYHEKHNFFQLSYLKIECPNNGSQQSLCLNFFREVDKRLGTKYESDYGGKRHGVPTLLALMSQVANQRAIGVLVIDEIQRLKIRKAVGREQMLEFFVELVNTVGIPVILVGTPKARPLFEIELQSARRTTGIGSLYWQPMPQYPDNPAERSEWEAFTNKLWRYQWLTRRDEVLTDEIRDCWYELSQGVLDIVVKLFVLAQLRAIASKLERITVKVLRSVYETELKPVHPMLHAIRRGNPNLIAKYSDLRIEDIDKRLLTLHQKIQALPEEPELPFSNNEQAMRLYNLLVQMDCRSDLLIPLVEKIFIERPKLTLRNMMPIVLEWYENGKEQPTNAPKPAKAALVKRTDWNTLESDDLRFIYSQVGKSESIYEALKDNGLVLDLKKVN
MGSDKIHHHHHHMEKIIITATAESIEQVKELLVAGVDRIYVGEADHALRIPTNFTYDELREIAELVHSAGKELTVAANALMHQDMMDNIKPFMELMREIKVDYLVVGDTGIFYINKRDGYNFKLIYDTSVFVTSSRQINFWKDHGAVEAVLAREIPSEELFDIAKNLEMPAEILVYGASVIHHSKRTLLQNYYNFTKADETDLSRGRGLFLAEPSDPDSHYSIFEDKHGTHIFINNDIDMMTKLSELDEHGYHNWKLDGIYCPGQNFVEIVKLFVQARDLIEKGEFTYDQAFLLDEQVRKLHPAERGLDTGFYEFDRNKVK
MGSDKIHHHHHHMEKTMDRIYKIGGHCFALPDERLMEAVDGISGFKPFVWQPDLVSAKDVYEGAWLPDFTVWEGNGWGFPAFQRKSYGFGYEDVTGTFGVSGDSFLLELAPQGEPSLYLRTMGGTGRGICLYGNYSPRLLRFALWMGYGLMTVRKDTVALHGSCIVYKGKAVLFLGESGTGKSTHTRLWRENIAGSKLLNDDSPIVRYEEGGVWVYGSPWSGKTPCYKAERYPLAGCVRLSQAPYNKIRRLNTLQAYAALHPSAPPAFAYEEELYCGVCSLLEKMVSSIPVYHLECLPDAEAVKLVCRTLYGDGYEADSE
MGSDKIHHHHHHMELDDAYANGAYIEGAADYPPRWAASAEDFRNSLQDRARLNLSYGEGDRHKFDLFLPEGTPVGLFVFVHGGYWMAFDKSSWSHLAVGALSKGWAVAMPSYELCPEVRISEITQQISQAVTAAAKEIDGPIVLAGHSAGGHLVARMLDPEVLPEAVGARIRNVVPISPLSDLRPLLRTSMNEKFKMDADAAIAESPVEMQNRYDAKVTVWVGGAERPAFLDQAIWLVEAWDADHVIAFEKHHFNVIEPLADPESDLVAVITA
MGSDKIHHHHHHMELVQFGCEDWLNVWEKSATIDIAQSTIDSLSLEEVLAFEEDNGEAFMSQMMKEKFSYGWIEGSPAFKSEVAKLYKRVPEDNILSTNGATGANFLTILGLIGQGDHVIAQYPSYQQLYDWPKTLGAQVDYWHIKEENNWLPQIEELRRLVKSNTKLICLNNAAQPTGAIMSPKFLSEVVEIARSVDAYILCDEVYLPLDEETPYSPIADLYEKGISTNSISKTYSVPGIRVGWVATQDRDLCNEFRKIRDYTLICTGVFDDAVAALVLKHKDKVLERARKIVKGNLSILKEWVENEPLVSMVYPNAVSVSFVKFEELDPTKTEDFAIQLLREKGVLIIPGNRFDLSGYARIGYCTDETTLRQGLKLLSEFLREYQV
